Source: publication PMC5897047
Residue numbers refer to the chain shown, from its start. In names and notes the source's numbering stands.

B1: yeast non hypusine-containing eIF5A (eIF5A-Lys), wild type (natural protein)
chain: MSDEEHTFETADAGSSATYPMQCSALRKNGFVVIKSRPCKIVDMSTSKTGKHGHAKVHLVAIDIFTGKKLEDLSPSTHNMEVPVVKRNEYQLLDIDDGFLSLMNMDGDTKDDVKAPEGELGDSLQTAFDEGKDLMVTIISAMGEEAAISFKEAARTD
B2: non hypusine-containing eIF5A from mutant tif51A-4 (K86A/R87A/E89A) (natural protein)
chain: B1 chain with K86A, R87A, E89A
B3: yeast hypusine-containing eIF5A (eIF5A-Hyp), wild type (natural protein)
chain: B1 chain
modifications: hypusine at Lys51
B4: hypusine-containing eIF5A from mutant tif51A-4 (K86A/R87A/E89A) (natural protein)
chain: B1 chain with K86A, R87A, E89A
modifications: hypusine at Lys51

Biological target: yeast 80S ribosome (S. cerevisiae (endogenous in yeast)) (UniProt P26321)
Assay: fluorescence polarisation

UniProt P26321, sequence (P26321 whole entry, looked up): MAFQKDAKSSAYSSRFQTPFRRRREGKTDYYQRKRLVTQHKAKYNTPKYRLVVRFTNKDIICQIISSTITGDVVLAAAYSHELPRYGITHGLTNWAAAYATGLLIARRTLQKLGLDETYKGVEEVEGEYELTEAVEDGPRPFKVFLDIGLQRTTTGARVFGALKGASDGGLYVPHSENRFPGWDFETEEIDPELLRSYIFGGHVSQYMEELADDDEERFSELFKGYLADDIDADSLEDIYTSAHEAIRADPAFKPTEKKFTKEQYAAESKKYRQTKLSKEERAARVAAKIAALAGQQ

| Binder | Ki [nM] |
| --- | --- |
| B1 | 238 |
| B2 | 388 |
| B3 | 8 |
| B4 | 171 |
